Experimental data published in patent US7776563B2, “Methods for identifying agents for treating cardiovascular disease using inhibition of myeloperoxidase binding” (The Cleveland Clinic Foundation, priority 2004, dated 2010).
Ends that are not written are not given here.

Target: binding of human apoA-1 to isolated human MPO (Homo sapiens, UniProt P05164)
Assay: Binding of human apoA-1 to plate-bound MPO in the presence of peptide
Conditions: isolated human MPO bound to wells of a 96 well plate; apoA-1 binding determined in presence of peptide; FIG. 9
Procedure: Isolated human MPO was bound to the wells in a 96 well plate and then the binding of human apoA-1 to the MPO was determined in the presence of a peptide comprising the sequence N-Ac-(L) AEYHAKATEHLSTL, SEQ ID NO: 2 (also known as the L-ApoA-MPO peptide), a sequence comprising SEQ ID NO: 2 and D amino acids, also known as the D-apoA-MPO peptide, and a peptide comprising the sequence, N-Ac (L) KHETHSLAYAAET, SEQ ID NO: 4.

binding of human apoA-1 to isolated human MPO, sequence (P05164 279-745 limits assumed): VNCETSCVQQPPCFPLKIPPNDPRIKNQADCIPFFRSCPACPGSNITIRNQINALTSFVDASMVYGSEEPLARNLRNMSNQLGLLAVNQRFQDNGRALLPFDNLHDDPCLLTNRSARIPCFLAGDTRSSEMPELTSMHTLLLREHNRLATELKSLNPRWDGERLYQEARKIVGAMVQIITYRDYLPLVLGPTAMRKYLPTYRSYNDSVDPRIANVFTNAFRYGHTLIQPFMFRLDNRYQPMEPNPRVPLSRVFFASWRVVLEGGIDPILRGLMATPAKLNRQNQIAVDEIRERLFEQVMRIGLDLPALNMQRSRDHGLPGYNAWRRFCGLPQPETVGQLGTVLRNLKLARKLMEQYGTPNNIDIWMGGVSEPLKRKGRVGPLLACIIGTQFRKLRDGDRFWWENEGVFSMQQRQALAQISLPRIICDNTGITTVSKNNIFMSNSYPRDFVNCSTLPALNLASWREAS
binding of human apoA-1 to isolated human MPO, sequence (P05164 165-278 limits assumed): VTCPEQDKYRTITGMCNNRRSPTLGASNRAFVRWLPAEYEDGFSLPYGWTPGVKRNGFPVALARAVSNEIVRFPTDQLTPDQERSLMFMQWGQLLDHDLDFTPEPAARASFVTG

Row | effect on binding of apo A-1 to MPO | Substance
1 | inhibited binding of apo A-1 to MPO | D-apoA-MPO peptide: a sequence comprising SEQ ID NO: 2 (AEYHAKATEHLSTL) and D amino acids (also: D amino acids (positions not given here); listed as Homo sapiens)
2 | had no effect on MPO-apoA-1 binding | N-Ac (L) KHETHSLAYAAET (Ac-KHETHSLAYAAET; listed as Homo sapiens) [SEQ ID NO: 4, reference compound]
3 | inhibited binding of apo A-1 to MPO | N-Ac-(L) AEYHAKATEHLSTL (Ac-AEYHAKATEHLSTL; listed as Homo sapiens) [L-ApoA-MPO peptide]
